Publication PMC7809593 (2021)

Target: CXCL12α (Homo sapiens, UniProt P48061, CXCR4 fused to Kate2)
Test: receptor internalization sensor

B1: CXCR4 (protein)
chain: MEGISIYTSDNYTEEMGSGDYDSMKEPCFREENANFNKIFLPTIYSIIFLTGIVGNGLVILVMGYQKKLRSMTDKYRLHLSVADLLFVITLPFWAVDAVANWYFGNFLCKAVHVIYTVNLYSSVLILAFISLDRYLAIVHATNSQRPRKLLAEKVVYVGVWIPALLLTIPDFIFANVSEADDRYICDRFYPNDLWVVVFQFQHIMVGLILPGIVILSCYCIIISKLSHSKGHQKRKALKTTVILILAFFACWLPYYIGISIDSFILLEIIKQGCEFENTVHKWISITEALAFFHCCLNPILYAFLGAKFKTSAQHALTSVSRGSSLKILSKGKRGGHSSVSTESESSSFHSS
A Kd of roughly 2 nM was found for B1 in this work.
